# Experimental data taken from the supplement of paper PMC5949888.
# Test system: Saccharomyces cerevisiae PS128 hsf1 delta, HSF1(1-493) fusion
# Assay: growth estimate (transactivation domain function in HSF1 fusion, heat-shock survival) (a.u. (slope of normalised read count over time)); higher = stronger growth at 37°C, i.e. more transactivation activity
# Conditions: library: design library
# In short: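 Transactivation-domain oligos were designed and fused to a truncated yeast HSF1 (amino acids 1–493), then expressed in a yeast strain lacking hsf1. Replica plating onto –trp 5-FOA plates was followed by incubation at 30°C or 37°C for 0, 2, 4, 6 and 8 days. Inserts were amplified by PCR and sequenced on an Illumina MiSeq as six barcoded replicates from a single experiment. The growth estimate is the slope of a robust linear fit over time of read counts normalised to sample totals and to starting count.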
row,Sequence,growth estimate
1,KQNGEIAQLWDFN,< -0.25
2,DFDLDMLGDFDLDMAG,30.2
3,DLDESWDYIGETTE,-0.243
4,LFDYDFLFGNRFA,-0.205
5,DLDESWDYIFETTA,0.992
6,QQNGEIAQLWDAN,-0.23
7,DLDESWDRIFETTE,< -0.25
8,QQNGEIAQLWDFK,< -0.25
9,EDDDEFSLWDSMA,-0.238
10,ERDDEFSLWDSML,0.267
11,TMDDVYNGLFDD,< -0.25
12,TMDDVYNYLFDP,1.58
13,DELSWRIELLEKDG,-0.216
14,PFPDTQDDFLKWWRSEPAQ,-0.225
15,GQNGEIAQLWDFN,< -0.25
16,DFKLDMLGDFDLDMLG,5.13
17,PEFPGIELQELQELQALLKQ,0.0452
18,PFPDTQDDFLKWWRGEEAQ,0.0794
19,DELSWIIRLLEKDG,< -0.25
20,LFDYDFPFGNDFA,0.577
21,PFPDTQDDFLKKWRSEEAQ,-0.167
22,PEFPGIELQELQELQKLLQQ,< -0.25
23,DLDESGDYIFETTE,-0.129
24,PEFPGIELQELQELQALLQA,-0.246
25,PFPDTQDDFLKWRRSEEAQ,-0.221
26,EDKDEFSLWDSML,-0.0707

row,Sequence,growth estimate
1,LFDYDRLFGNDFA,-0.0061
2,VADDIWEELGSEDL,-0.221
3,MPSSHGFSVDTSALLDLFSP,0.171
4,DFDLDMLGDADLDMLG,5.13
5,DLRESWDYIFETTE,-0.213
6,MLSSHGFSVDTSALLDGFSP,-0.227
7,EDDDEASLWDSML,< -0.25
8,EDDPEFSLWDSML,1.77
9,GLSSHGFSVDTSALLDLFSP,0.18
10,VADDIWEKLLSEDL,2.03
11,EFNDLLDLDFILSN,1.51
12,EFNDLPDLDFILSN,-0.195
13,DELSWIIEKLEKDG,< -0.25
14,EDDDEFSRWDSML,-0.0194
15,QQNGEIAQLWGFN,< -0.261
16,DFDLDMLGDFKLDMLG,0.503
17,DELSWIIELLEKGG,0.213
18,TADDVYNYLFDD,0.0678
19,EFNDLLDLDFIKSN,-0.165
20,MLSSHGFSVKTSALLDLFSP,-0.0119
21,MLSSHGFSVDTSALLKLFSP,-0.216
22,VADDIWEELLREDL,10.8
23,DELSWIIELREKDG,-0.239
24,MRSSHGFSVDTSALLDLFSP,-0.241
25,PFPDTPDDFLKWWRSEEAQ,0.819
26,PEFPGIELQELQELQALLQK,-0.125

row,Sequence,growth estimate
1,KADDIWEELLSEDL,0.514
2,LFDYDFKFGNDFA,-0.229
3,PEFPGIELQELQELQALLGQ,-0.226
4,PEFPGIELRELQELQALLQQ,0.0112
5,DELSWIIELLEKDP,3.41
6,MLSSHGFSVDTSALADLFSP,-0.191
7,PEFPGIELQELQRLQALLQQ,< -0.25
8,LFDYAFLFGNDFA,2.15
9,DLDESWDYIFETPE,0.951
10,QQNAEIAQLWDFN,< -0.25
11,RFNDLLDLDFILSN,-0.133
12,DFDLDMLADFDLDMLG,0.343
13,PEFPGIELQELQELGALLQQ,-0.221
14,VADDIWEELLGEDL,2.11
15,DELSWIGELLEKDG,-0.125
16,MLSSHGFSVDTSAALDLFSP,-0.124
17,PQNGEIAQLWDFN,-0.229
18,DLDESWDYIFEGTE,1.27
19,EDLYSILASDVY,-0.238
20,EPLYSILWSDVY,-0.136
21,MLSSHGFSVDTSALLDLKSP,-0.096
22,EFNDLRDLDFILSN,-0.248
23,EDAYSILWSDVY,-0.234
24,EFNDLLGLDFILSN,< -0.25
25,EDLYSILWGDVY,-0.152
26,EFNRLLDLDFILSN,< -0.25
